Measured values from article PMC4402530, “Unwinding forward and sliding back: an intermittent unwinding mode of the BLM helicase”.

B1: F18/F18 bis dsDNA (18 bp) (dsDNA)
DNA 1: GCCTCGCTGCCGTCGCCA
DNA 2: TGGCGACGGCAGCGAGGC
B2: F18 ssDNA (18 nt) (ssDNA)
DNA: GCCTCGCTGCCGTCGCCA

Key:
Experiment in all cases: fluorescence anisotropy; 1 mM MgCl2, no ATP listed; 25 mM Tris-HCl pH 7.5 (last digit split in text), 100 mM NaCl, 1 mM MgCl2, 3 mM DTT, 5 nM DNA, 25 C, 5 min equilibration; Hill fit
Settings in all cases: protein: recombinant
[1] = target: BLM642-1290 helicase core, wild type (human, UniProt P54132 642-1290)
BLM642-1290 K1125A = BLM642-1290 K1125A (human, UniProt P54132 642-1290, K1125A)
BLM642-1290 S1121A = BLM642-1290 S1121A (human, UniProt P54132 642-1290, S1121A)
BLM642-1290 T1110G = BLM642-1290 T1110G (human, UniProt P54132 642-1290, T1110G)
[2] = label: 3' fluorescein on F18, blunt

Chain of BLM642-1290 T1110G (P54132 642-1290 T1110G): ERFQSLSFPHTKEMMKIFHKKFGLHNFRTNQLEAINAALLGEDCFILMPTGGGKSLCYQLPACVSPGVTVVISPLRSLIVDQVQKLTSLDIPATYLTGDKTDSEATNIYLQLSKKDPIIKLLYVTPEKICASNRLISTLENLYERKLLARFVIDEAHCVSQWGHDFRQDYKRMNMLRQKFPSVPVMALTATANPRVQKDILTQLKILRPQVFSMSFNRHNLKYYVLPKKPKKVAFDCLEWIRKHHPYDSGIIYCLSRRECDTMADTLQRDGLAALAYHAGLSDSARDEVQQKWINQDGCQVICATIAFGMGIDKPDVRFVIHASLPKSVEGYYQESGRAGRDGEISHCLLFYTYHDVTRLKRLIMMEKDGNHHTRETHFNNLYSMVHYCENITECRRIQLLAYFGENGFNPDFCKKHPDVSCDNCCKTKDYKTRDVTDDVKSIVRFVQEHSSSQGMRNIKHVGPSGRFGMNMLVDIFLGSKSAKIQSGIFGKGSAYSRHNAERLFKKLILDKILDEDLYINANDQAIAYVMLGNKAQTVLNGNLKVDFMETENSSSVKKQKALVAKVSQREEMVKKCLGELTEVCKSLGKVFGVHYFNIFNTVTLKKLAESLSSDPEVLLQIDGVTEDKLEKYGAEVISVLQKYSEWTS
Chain of BLM642-1290 helicase core, wild type (P54132 642-1290): as the sequence (P54132 642-1290 T1110G) above, with G469T counted along it
Chain of BLM642-1290 S1121A (P54132 642-1290 S1121A): as the sequence (P54132 642-1290 T1110G) above, with G469T, S480A counted along it
Chain of BLM642-1290 K1125A (P54132 642-1290 K1125A): as the sequence (P54132 642-1290 T1110G) above, with G469T, K484A counted along it

Binder	Kd [1, 2]	Kd (BLM642-1290 K1125A; [2])	Kd (BLM642-1290 S1121A; [2])	Kd (BLM642-1290 T1110G; [2])	Kd ([1]; label: 3' fluorescein)	Kd (BLM642-1290 K1125A; label: 3' fluorescein)	Kd (BLM642-1290 S1121A; label: 3' fluorescein)	Kd (BLM642-1290 T1110G; label: 3' fluorescein)
B1	4.6 ± 0.5 nM	28.6 ± 2.6 nM	14.9 ± 1.7 nM	78.2 ± 7.2 nM				
B2					17.2 ± 1.6 nM	21.3 ± 2.9 nM	27.1 ± 3.7 nM	29.7 ± 3.6 nM
